One block for each molecule: values may come before it.
How the values were obtained:
[1] = target: mouse TPBG protein, full-length, on the cell surface (mouse) (UniProt Q9Z0L0); experiment: FACS, CHOk1-mTPBG 3A3 cells
[2] = target: human TPBG protein, full-length, on the cell surface (human) (UniProt Q13641); experiment: FACS, CHOk1-hTPBG 3A2F1 cells
[3] = target: cynomolgus TPBG protein, full-length, on the cell surface (cynomolgus) (UniProt Q4R8Y9); experiment: FACS, CHOk1-cTPBG 3F13G4 cells
[4] = target: human TPBG protein, full-length, on the cell surface (human) (UniProt Q13641); experiment: FACS, HEK293 clone 293F-hTPBG 4A8
[5] = target: human TPBG protein, full-length, on the cell surface (human) (UniProt Q13641); experiment: FACS, HEK293 clone 293F-hTPBG 4A9
[6] = target: human TPBG protein, full-length, on the cell surface (human) (UniProt Q13641); experiment: FACS, HEK293 clone 293F-hTPBG 4B9
[7] = target: human TPBG protein, full-length, on the cell surface (human) (UniProt Q13641); experiment: FACS, HEK293 clone 293F-hTPBG 4C3
[8] = target: human TPBG protein, full-length, on the cell surface (human) (UniProt Q13641); experiment: FACS, HEK293 clone 293F-hTPBG 4C5
[9] = target: human TPBG protein, full-length, on the cell surface (human) (UniProt Q13641); experiment: FACS, HEK293 clone 293F-hTPBG 4E1
[10] = target: human TPBG protein, full-length, on the cell surface (human) (UniProt Q13641); experiment: FACS, HEK293 clone 293F-hTPBG 4F9
[11] = target: human TPBG protein, full-length, on the cell surface (human) (UniProt Q13641); experiment: FACS, HEK293 clone 293F-hTPBG 4G1
[12] = target: human TPBG protein, full-length, on the cell surface (human) (UniProt Q13641); experiment: FACS, HEK293 clone 293F-hTPBG 4G6
[13] = target: human TPBG protein, full-length, on the cell surface (human) (UniProt Q13641); experiment: FACS, HEK293 clone 293F-hTPBG 5A9
[14] = target: human TPBG protein, full-length, on the cell surface (human) (UniProt Q13641); experiment: FACS, HEK293 clone 293F-hTPBG 5D4
[15] = target: human TPBG protein, full-length, on the cell surface (human) (UniProt Q13641); experiment: FACS, HEK293 clone 293F-hTPBG 5E5
[16] = target: human TPBG protein, full-length, on the cell surface (human) (UniProt Q13641); experiment: FACS, HEK293 clone 293F-hTPBG 5E6
[17] = target: human TPBG protein, full-length, on the cell surface (human) (UniProt Q13641); experiment: FACS, HEK293 clone 293F-hTPBG 5G8
[18] = target: human TPBG protein, full-length, on the cell surface (human) (UniProt Q13641); experiment: FACS, HEK293 clone 293F-hTPBG 5H6
[19] = target: human TPBG protein, full-length, on the cell surface (human) (UniProt Q13641); experiment: FACS, HEK293 clone 293F-hTPBG 4H12
[20] = target: human TPBG protein, full-length, on the cell surface (human) (UniProt Q13641); experiment: FACS, HEK293 clone 293F-hTPBG 5A11
[21] = target: human TPBG protein, full-length, on the cell surface (human) (UniProt Q13641); experiment: FACS, HEK293 clone 293F-hTPBG 5C12
[22] = target: human TPBG protein, full-length, on the cell surface (human) (UniProt Q13641); experiment: FACS, HEK293 clone 293F-hTPBG 5G11
[23] = target: human TPBG protein, full-length, on the cell surface (human) (UniProt Q13641); experiment: FACS, HEK293 clone 293F-hTPBG 4E1 (NO 8)
[24] = target: T1, cynomolgus TPBG protein, full-length, on the cell surface (cynomolgus, UniProt Q4R8Y9 35-420); experiment: FACS on CHOk1-cTPBG cells
T1 construct: whole, on cells; also called cTPBG; CHOk1-cTPBG
T1 sequence (looked up): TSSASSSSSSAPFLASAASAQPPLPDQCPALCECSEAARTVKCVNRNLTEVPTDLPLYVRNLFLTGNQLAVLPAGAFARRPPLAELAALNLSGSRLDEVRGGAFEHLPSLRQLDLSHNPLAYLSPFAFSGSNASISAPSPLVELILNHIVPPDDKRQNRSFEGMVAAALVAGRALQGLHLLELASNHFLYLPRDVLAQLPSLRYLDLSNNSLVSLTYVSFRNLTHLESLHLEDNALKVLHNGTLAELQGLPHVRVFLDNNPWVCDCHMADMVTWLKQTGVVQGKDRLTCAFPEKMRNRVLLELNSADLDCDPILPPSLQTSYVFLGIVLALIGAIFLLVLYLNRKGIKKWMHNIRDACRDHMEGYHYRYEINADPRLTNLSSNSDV
From the text: (§1) The stable cell lines CHOk1-hTPBG, CHOk1-cTPBG, CHOk1-mTPBG (i.e. the CHOk1-hTPBG 3A2F1, CHOk1-cTPBG 3F13G4 and CHOk1-mTPBG 3A3 shown in Table 6) and CHO-k1 cells were expanded to a 90% of confluency in T-75 cell culture flasks, and the culture medium were removed. Cells were then rinsed twice with HBSS buffer (Hanks Balanced Salt Solution, purchased from Invitrogen) and […] with enzyme-free cell dissociation buffer (Versene solution was purchased from Life technology) and harvested. Harvested cells were rinsed with HBSS buffer twice and counted before diluting with HBSS buffer to 2×10⁶ cells/mL, and 10% goat serum blocking buffer was then added, wherein the percentage is the mass percentage. Cells were incubated on ice for 30 min, and then washed twice with HBSS buffer by centrifugation. […] The plate was washed with the FACS buffer twice by centrifugation, and 100 μL per well of fluorescence (Alexa 488) labeled secondary antibody (purchased from Invitrogen) was then added and incubated on ice for 1 h. […] The results were measured and analyzed by FACS (FACS Calibur, purchased from BD). The data was analyzed by software (CellQuest) to obtain the mean fluorescence intensity (MFI) of the cells, follow by calculating EC50 value by software (GraphPad Prism) analysis and data fitting.

[25] = target: T2, human TPBG protein, full-length, on the cell surface (human, UniProt Q13641 32-420); experiment: FACS on CHOk1-hTPBG cells
T2 construct: whole, on cells; Transfected HEK293 (293F-hTPBG clones) and CHO-k1 (CHOk1-hTPBG 3A2F1) cells; also used here for endogenous TPBG on the TPBG-positive tumour lines NCI-H1568, NCI-H1975 and MDA-MB-468 in the killing assays; also called hTPBG; 5T4
T2 sequence (looked up): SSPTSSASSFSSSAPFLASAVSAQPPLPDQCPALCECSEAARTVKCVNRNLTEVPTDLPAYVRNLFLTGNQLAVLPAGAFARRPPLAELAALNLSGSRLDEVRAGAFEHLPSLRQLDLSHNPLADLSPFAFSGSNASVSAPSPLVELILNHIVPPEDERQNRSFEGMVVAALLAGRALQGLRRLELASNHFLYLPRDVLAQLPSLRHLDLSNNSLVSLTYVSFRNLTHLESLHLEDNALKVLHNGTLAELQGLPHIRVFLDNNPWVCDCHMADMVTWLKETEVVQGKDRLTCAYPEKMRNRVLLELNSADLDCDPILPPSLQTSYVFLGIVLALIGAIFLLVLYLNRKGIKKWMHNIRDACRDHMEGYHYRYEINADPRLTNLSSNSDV
From the text: as §1

[26] = target: T3, mouse TPBG protein, full-length, on the cell surface (mouse, UniProt Q9Z0L0 32-426); experiment: FACS on CHOk1-mTPBG cells
T3 construct: whole, on cells; also called mTPBG; CHOk1-mTPBG
T3 sequence (looked up): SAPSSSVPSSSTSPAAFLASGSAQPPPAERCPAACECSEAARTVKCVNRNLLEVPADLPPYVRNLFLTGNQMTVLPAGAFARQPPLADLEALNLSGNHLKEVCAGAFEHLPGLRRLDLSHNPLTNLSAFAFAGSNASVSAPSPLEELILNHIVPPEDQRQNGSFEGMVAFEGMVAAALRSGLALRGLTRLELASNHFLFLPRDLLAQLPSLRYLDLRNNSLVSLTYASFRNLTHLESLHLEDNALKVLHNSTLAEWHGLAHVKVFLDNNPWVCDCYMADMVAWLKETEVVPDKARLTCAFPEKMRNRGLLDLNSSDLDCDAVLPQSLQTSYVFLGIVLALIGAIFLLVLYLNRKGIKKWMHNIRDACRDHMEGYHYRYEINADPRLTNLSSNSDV
From the text: as §1

- Cellular MFI [1]: 135 MFI
- Cellular MFI [2]: 798 MFI
- Cellular MFI [3]: 198 MFI
- Cellular MFI [4]: 33.4 MFI
- Cellular MFI [5]: 204 MFI
- Cellular MFI [6]: 126 MFI
- Cellular MFI [7]: 27.2 MFI
- Cellular MFI [8]: 172 MFI
- Cellular MFI [9]: 145 MFI
- Cellular MFI [10]: 47.7 MFI
- Cellular MFI [11]: 131 MFI
- Cellular MFI [12]: 31.8 MFI
- Cellular MFI [13]: 53.2 MFI
- Cellular MFI [14]: 70.6 MFI
- Cellular MFI [15]: 280 MFI
- Cellular MFI [16]: 13.2 MFI
- Cellular MFI [17]: 168 MFI
- Cellular MFI [18]: 36.4 MFI
- Cellular MFI [19]: 9.5 MFI
- Cellular MFI [20]: 166 MFI
- Cellular MFI [21]: 75.4 MFI
- Cellular MFI [22]: 11.3 MFI
- Cellular MFI [23]: 91.8 MFI
Molecule: commercially available TPBG antibody (purchased from Sigma, Lot NO: SAB1404485)

- EC50 [24]: 0.59 nM
- EC50 [25]: 0.65 nM
- binding result [26]: no binding
B1: mouse anti-TPBG monoclonal antibody 12B12C7C3 (antibody, V domains shown)
VH: DVQLVESGGGLVQPGGSRKLSCAASGFTFSNFGMHWVRQAPEKGLEWVAYISSGSTSFYYADTVKGRFTISRDNPKNTLFLQMTSLRSEDTAMYYCSRTNSLLRGFFDAWGAGTTVTVSS
VL: DIVLTQSPASLAVSLGQRATISCRASQSVSSSSYTYLHWYQQKPGQPPKLLIKSASNLESGVPARFSGTGSGTDFTLNIHPVEEEDTATYYCQHSWEIPLTFGAGTKLELK
notes: Mouse antibody purified from hybridoma supernatant; also called 12B12C7C3 (12B12 for short)

- EC50 [24]: 0.25 nM
- EC50 [25]: 0.63 nM
- binding result [26]: no binding
B2: mouse anti-TPBG monoclonal antibody 28D4E6A9 (antibody, V domains shown)
VH: DVQLVESGGGLVRPGGSLKLSCAASGFTFSNYVMSWARQSPEKRLEWVAEISTGGSHTYYSDTVTGRFTISRDNAKKALYLEMSSLRSEDTAIYYCIMFYYGSSYSMDYWGQGTSVTVSS
VL: DIQMTQSTSSLSASLGDRITISCRASQDIRNYLNWYQQKPDGTVKLLIYHTSRLHSGVPSRFSGSGSGTDYSLTISNLEQEDIATYFCQQGDTLPLTFGAGTRLELK
notes: Mouse antibody purified from hybridoma supernatant; also called 28D4E6A9 (28D4 for short)

Reference: patent publication US20200062856A1 (XDCEXPLORER SHANGHAI, published 2020)
